Results published in patent US20240026407A1, “MODIFICATION OF SAPONINS” (GLAXOSMITHKLINE BIOLOGICALS SA, priority 2020, published 2024).

B1: 844 (protein, listed as Paenarthrobacter aurescens)
chain: MNPTLSAAVTAPSAGTQDAEAEIRDLAQSLTLEQQVQLLTGADVWSTHAIPEIGLSRVVMSDGPAGVRGEDFDERHDSVSLPSSSALSATWSVETARNYGQVLGQEARRKGVHAVLGPTINLHRSPLGGRHFECMSEDPRLTATMAAGYVAGVQSMGVGATPKHYLANEAETERFTADSVVDERPLRELYLAAFEDAITEARAWLVMSSYNSINGTTASENKLLETPLSTEWGFDGVVVSDWTGVRSIDAANAHQDLEMPGPVGHWGPKLLAAVNEGRVSREAILEKVTRILRLAARVGSLEGFEPAVTHLPTELNGAAVAREVAVRGAVLVRNKGLLPLDAKALGSVAVIGHNADEARTQGGGSATVMPKYTVSPLEGLRKALPEGVKVTYARGAKVAEGIQAFPRTSLHNPVSNVPGIRVTFLAEDGTEISGEDRLASHLIWFGIGIPDGAASIRMEADWTAETAGVHHLGVGTVGRIRFVLDGTEVFNSELEDDTEVLGAALFDPPKTVHAIDTTAGQSIRIEAEYQLPKEQVIPFTAILLGEETVVAEPQAEIDAAVEAARASDVAVVVVGTNAAIESEGFDRKDLDLPGYQNQLVKAVAAANPRTVVVVNSGSPVLMPWLDTVDAVLLGWFGGQEFGSAVADILLGVEEPGGRLPTTWPSALDDVPVLNTTPTDGKVVYSEGIHIGYRAWLKQQAEGGAAPALPFGFGLGYTTFEFGKAHAPQAVTAGKDLVVHVPVKNTGTRTGREVVQVYVERTESAVERPVRWLAGYAGAHLAPAGTESVEIRIPAKAFAHYDGGWQFEQGTFRLLVGRHAADDFQSLDIELR
B2: 882 (protein, listed as Acidipropionibacterium acidipropionici)
chain: MAESPIQSLSMRSLSTEQKAALTSGADFWHTESCAPLGLPAIMLTDGPHGLRKQTGSTDMLGLGSSVPATCFPPAVGLGSSWDVDLIHRVGAALGAEASIEGVAVLLGPAINIKRSPLCGRNFEYISEDPLVAGTLGAAMVEGIQSRAVGACVKHFAANNQETDRMRVSADVDPRALHEIYLRAFEQVVRRAEPWMVMCSYNRINGVPASQDHWLLTDLLRGQWGFDRVVVSDWGAVSDRVASLSAGLDLEMPGTAGRTDAQILAALASGTLDEETLDSAAARVVTLLRRAAVGAGEVSGPLDVDAHHRLAREAAARSIVLLRNEVQRSETTGDEGALLPLRPDARIAVIGAFAEQPRYQGAGSSRINPTRLDTALAEIRALASGEVSYSPGFRLTPESVGPAEELRRDAAEAASQAEVAVVFLGLGDDAESEGFDRTGIDLSADQLALLDDVLAANPNTVVVLSNGAVVALPFADRVPAILEAWLGGQAGGGGVADVLFGRVNPSGRLTETIPKRLADSPAYLDFPGEHGHVRYGEGIFVGYRWYDARELEVAFPFGHGLSYTTFSYGQASAALDEDGNITVRLPVTNTGAVAGREVVQAYVSLPGSAVQRPPRELKGFVVVEAEPGQTVEAEMLIRREDLAYWDLRIDRWRVEAGTYRIDVAASSRDIRSSVEVVVPDGDAPIPLNWDSTLGELMAHPVAGPALAQAMAGALEGFAGAGDLMPAGAMAQMAGSLPLRALLTLGGDAVTPETLNQLIVLANGSPRK
B3: 874 (protein)
chain: MSEQTSSSTYPSVNDLSLEEKASLTSGGDAWHLQPIEERGIPGYMITDGPHGLRKTAGDTGAIDLEHTVPATCFPPAAGMSSTWNPELVEEVGQAMAEECIQEKVAVILGPGVNIKRNPLGGRCFEYWSEDPYLAGHEAVGIVKGVQSKGVGTSLKHFAVNNQETDRLRIDARVSQRALREIYLPAFEHIVKTAQPWTVMCAYNRINGVYAAQNRWLLTDVLRKEWGFKGIVMSDWGADHDRVASLNAGLNLEMPPSFTDDQIVSAARDGRISPKQLDDMAQGMIGLVNKTRQAMSVEDYRFDAQVHDDIARRAAAESMVLLKNDEHILPLSKNARVAVIGEFARTPRYQGGGSSHITPTQLTSLLDALQQRGIEYDFAPGFTLEDGEQEQSLVDEAVNIASKADAVVMCLGLPEYAESEGFDRTSLDIPAKQLELLSKVRESNANVVVLLSNGSVVSLTPWQDQAKAVVETWLLGQSGGGAIADMLFGDVNPSGKLSQTIPLNILDDPSMLNWPGEEGHVDYGEGVFVGYRYYDTYAKEVAYPFGFGLSYSDFSIDNVSVERTGANTACVRATVTNVSQTAGAQTVQIYVAPGRSEVARPVHELKGFAKVFLEAGESKEISIDLDERAFAYWSERFNDWHIEAGTYGIEVATSSRDIVERLDIELEGDGKSLPLNEWSNMSEWRKDPVGGPIVKRMFEEGRDGRIPALPENNLGAELFLDAMPINSMSVLLGKDGKVLTQFLLDEYAKETDGLH
modifications: Bifidobacterium tsurumiense
B4: 823 (protein, listed as Streptomyces fulvissimus)
chain: MAAASSTSNSKALRREAVDTALAALGLDDKTRLLAGQDLWSLPALPAIGLRSLVMSDGPIGVRGVRWTAADPSVALPSPTALAATWDPELARRAGRLLAQEARRKGVHVLLAPTVNLHRTPLGGRHFEAYSEDPYLTGEIGTGYVRGVQDGGVATTVKHFVANDAETDRFTVNNTVAPRPLRELYLAPFERIVRNAHPWGIMAAYNQVNGSTMTEHRYLQNAVLRGEWGFDGFIVSDWLAARTTVGAITGGLDAAMPGPRTVYGETLADAVRAGEVDEKIVDLAVRNILLLAARVGALESAPPAVPAAALPATVDGDALAREIARRSFVLVRNEVHDGADALPLAPGTTVALSGALARDARVLGGGSALVFPDHVVSPLDGLTAALPEGALTYAVGADPSDELAIAEAGFDLTAVCRDASGAVLATVPLPSGQIQWIGADLPDGVTHDTLDTVEITGTFTPRASGEHTFGTRGTGSFALTVDDRPLFDGTQDRAPGTDPLGAFFNEPVERGRLPLTEGAPVRVSLSHRPGPGTGHPLKGVAFSLVHLAPLRDPDELIAEAVEAARSADTAIVVVGTTERVESEGFDRTDLKLPGHQDALVHAVAAVNPRTVVVVNSGSPVELPWRNEVAAVLLSWFPGQEAGHALADVLRGQEEPGGRLPTTWPVALADVPVSATTPTNGELPYTEGVFIGYRAWEKAGTTPAYAFGHGLGYTTWEYEDVSATPDSVTVRVRNTGSRPGSDTVQIYLAPAPAPDAPERPARWLAGFARVTAAPGGSVEVTVPVEARAYQVWDEEAYGWKTVPGTYEVQAARSLADVRATTTVDITA
B5: 824 (protein, listed as Pestalotiopsis fici)
chain: MMTTDIEAVLKSLTLEEKISLLAGQNFWETVPVPGKVPHIKTSDGPNGARGADFTGGTRAACFPAASNVAATFDLDIANRIGQALAEETQSKGARCLLAPTTCIHRHPLGGRNFESFSEDPLLSGKLASQVIQGVQSKGVAATIKHFAANEQETERMSVDETISERALREIYLRPFEIAVKEAKPWAVMTAYNCVNGEHCDSNAFNFKVLREEWGWKGLVMSDWGGTNSTAEALNAGLDLEMPGPTNRRKIPDVLAAIKEGKTTERAIDDRARAVLEFIDRLKAFEDPTIPPEQAINKPEHQALIREAGAKGCVLLKNDNGVLPLSKDKVKGKKVAVFGLAKTPLAHGGGSASVNAHYKIAPWDALQEAVGDSAELVYSQGAHTQRILLPIGEDKSAGSIVGLDGKPGFTLQVFDNATQAIEETTHGHPSSSISPLGSKATLYKILEFVGDFTPTESGSHYLGCTGLGLTQVYVNDKLVYDQQKASPDAMGFLFGAISEDEFTYPFTAGNAYRIRVRSLPPIDVPGLEILNGRSGVRLGLQLASEHDADLQGEAVALAKDADYALVFTGHDPQWETEGQDQESFNLPRKGTQDALISAVAKVNPNTVVINSTGVAIALPWLEQVSSLVHAGFPGQECGNSIVDVITGAVNPEGRLPMSFPKRLEDAPAYGNFPGEYVNGQLKVEYKEGVFVGYRHYDRIGRDKVNFAFGHGLSYTTFATDSLRVSRKSETEFSASVNVTNTGKTQGGTLVQLYAGNATTSPEHPIKGLVAFKKIRLEPGQTQTVDLAVAARDLGFFDESRGQWVVPAGQYDFSLGESALDIIQTVKVAVEKELTSAP
B6: 825 (protein, listed as Bifidobacterium bohemicum)
chain: MSEQNSERKATLPQAKDLSVEEQSALTSGTNPWSIGRVEGKGLPNYTITDGPHGLRKARDLDGMDVDAAVPATCFPPAAGMSSSWNPELIKKTGEAMGEECVQEQVAVILGPGVNIKRNPLGGRCFEFWSEDPYLAGHEAIGEVEGIQSKGIGTSLKHFAANNQETDRLRVNARISERAMREIYLPAFEHIIKNAQPWTVMCSYNRINGEYASQNSWLLTDVLRKEWGFKGIVMSDWGAVHDRAAALNAGLNLEMPPTHTDDKIVQAVRDGQVKPEQLEAMSQGMIDLVAKTQPAMEKGAAGYRYDVDEHDEIAREAAREAMVLLKNEDGLLPVKPGTKLAVIGEFARTPRYQGAGSSLINPNKLTSFLDALKDRGVEAEFAPGFTLDGDEQSQELTDEAVNAAESADTVLLFIGLPAEAESEGFDRTTLDIPAKQIEVLKAVSAVNKNVVVILSNGSVVSMPWADQAKSILECWLLGQAGGAATADVVFGDVNPSGKLAQTIVNNLDDDPSMLNWPGEEGHVDYGEGVFVGYRYYDSFHKAVTYPFGYGLSYTTFDISEVNAQKSGPQSVHVTAMVTNTGSMAGAEVVQVYVAPPACRVDRPVHELKAFKKVFLEPGQSQEVSFDLDSRAFAYWSERFEDWKVEGGSYGIEVGDSSRSIAQTVPVQLDDDGKRMKLTKWSTYGEWREDPDGNKILDKVISELEAKYGHAIIPDSQLIIMFLKSAPLGGMSMVLGANEAQDICERALAEYAKIGR

Key:
Type in all cases: biochemical, Quillaja saponaria
[1] = Experiment 5-1: screening of additional glucosidases for deglycosylation with purified QS-18 (0.04 mg/ml) at pH 7.5 and 30 deg C; conditions: pH 7.5, 30 degrees C, 18 hours, LCMS/MS
Experimental: The 94 additional genes, together with positive control (DNA encoding SEQ ID No. 262) and negative control, were transformed, expressed, lysed and reacted in the same manner as described above for Experiment 4-1, except the reaction was incubated at 30 degrees C. for 18 hours.
Samples were analysed by LCMS/MS according to the procedure in Experiment 4-1.

[2] = Experiment 5-2: screening of additional glucosidases for deglycosylation with QS-18 in crude bark extract (80%) at pH 6 and 35 deg C; conditions: CBE 80%, pH 6, 35 deg C, 18 hours; UV HPLC
Procedure, shortened: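 Clarified glucosidase lysate (prepared at pH 6) was incubated with pH 6-adjusted crude bark extract at 35 deg C with shaking for 18 hours. Reactions were quenched with MeCN containing 2% AcOH and hexanophenone, then analysed by UV HPLC.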

[3] = Experiment 5-3: screening of additional glucosidases for deglycosylation with QS-18 in treated bark extract (80%) at pH 6 and 35 deg C; conditions: TBE 80% (QS-21 approx. 4 g/L), pH 6, 35 deg C; UV HPLC
Experimental: Experiment 5-1 was repeated, replacing CBE with Treated Bark Extract (TBE) at pH 6. TBE was prepared from CBE by PVPP treatment and concentration, to provide TBE with a QS-21 concentration of approximately 4 g/L. TBE was adjusted to pH 6 by dropwise addition of 2M NaOH with stirring.

Row | Molecule | Experiment 5-1 % conv [1] [%] | Experiment 5-2 % conv [2] [%] | Experiment 5-3 % conv [3] [%]
1 | B1 | 43.6 | <0.5 | <0.5
2 | B2 | 31.4 | <0.5 | <0.5
3 | B3 | 29.4 | <0.5 | <0.5
4 | B4 | 23.1 | <0.5 | <0.5
5 | B5 | 23.5 | <0.5 | <0.5
6 | B6 | 24.5 | <0.5 | <0.5
